Key:
[1] = target: human vascular endothelial growth factor 165 (hVEGF), E. coli-derived, after tag cleavage (human); assay: SEC; SEC-HPLC, Protein-pak 300SW SEC 7.5 x 300 mm column, 1X PBS pH 7.4, room temperature, 1 mL/min, detection at 280 nm; peaks checked on non-reducing SDS-PAGE
[2] = target: human vascular endothelial growth factor 165 (hVEGF), E. coli-derived, after tag cleavage (human); assay: non-reducing SDS-PAGE; purified hVEGF in sample buffer with SDS, without DTT (non-reducing) against with 100 mM DTT (reducing), tricine SDS-PAGE, Coomassie stain; shows disulfide-linked forms

- stoichiometry N [1]: 2
- stoichiometry N [2]: 2
Substance: human vascular endothelial growth factor 165 (hVEGF), E. coli-derived, after tag cleavage (ligand)
